Among the data in article PMC12164381 (mAbs, 2025) are pKD values, retold here.

Read-outs that look alike come from different tables or passages of the source.

What all share (experiment): SPR
(In general: Surface plasmon resonance follows binding to a sensor surface in real time, without labels.)

Experiment [1] deals with T1, SARS-CoV-2 Spike RBD, original (Wuhan) strain (SARS-CoV-2, original Wuhan strain, UniProt P0DTC2).
The target of experiment [2] is T1, SARS-CoV-2 Spike RBD, original (Wuhan) …. This is another data set of the same source.
Experiment [3] addresses SARS-CoV-2 Spike RBD, XBB.1.5 strain (SARS-CoV-2, Omicron XBB.1.5, strain).

B1: BD55–5840 (antibody, V domains shown)
VH: VQLAQSGSELRKPGASVKVSCDTSGHSFTSNAIHWVRQAPGQGLEWMGWINTDTGTPTYAQGFTGRFVFSLDTSARTAYLQISSLKADDTAVFYCARERDYSDYFFDYWGQGTLVTVSS
VL: EVVMTQSPASLSVSPGERATLSCRARASLGISTDLAWYQQRPGQAPRLLIYGASTRATGIPARFSGSGSGTEFTLTISSLQSEDSAVYYCQQYSNWPLTFGGGTKVEIK
As to B1, the pKD in experiment [1] is 10.1 -log10(KD).

B2: REGN10987 (antibody, V domains shown)
VH: QVQLVESGGGVVQPGRSLRLSCAASGFTFSNYAMYWVRQAPGKGLEWVAVISYDGSNKYYADSVKGRFTISRDNSKNTLYLQMNSLRTEDTAVYYCASGSDYGDYLLVYWGQGTLVTVSS
VL: QSALTQPASVSGSPGQSITISCTGTSSDVGGYNYVSWYQQHPGKAPKLMIYDVSKRPSGVSNRFSGSKSGNTASLTISGLQSEDEADYYCNSLTSISTWVFGGGTKLTVL
As for B2, the pKD in experiment [1] is 7.84 -log10(KD).

B3: S2K146 (antibody, V domains shown)
VH: QVQLVESGGVVVQPGGSLRLSCAASGFTFHDHTMHWVRQAPGKGLEWVSLITWNGGTIHYSDSVKGRFTISRDNSKNSLYLQMNSLRTEDTALYYCAKDLGRGGWYLPSDAWGQGTLVTVSS
VL: not shown
As to B3, the pKD in experiment [1] was 10.3 -log10(KD).

B4: LY-CoV1404 (antibody, V domains shown)
VH: QITLKESGPTLVKPTQTLTLTCTFSGFSLSISGVGVGWLRQPPGKALEWLALIYWDDDKRYSPSLKSRLTISKDTSKNQVVLKMTNIDPVDTATYYCAHHSISTIFDHWGQGTLVTVSS
VL: QSALTQPASVSGSPGQSITISCTATSSDVGDYNYVSWYQQHPGKAPKLMIFEVSDRPSGISNRFSGSKSGNTASLTISGLQAEDEADYYCSSYTTSSAVFGGGTKLTVL
Regarding B4, in experiment [1], the pKD was 9.01 -log10(KD).

B5: Inverse folding design from the LY-CoV1404 starting point (Table 5, design row 1, the 5th table, row 12) (antibody, V domains shown)
VH: QITLKESGPTLVKPTQTLTLTCTFSGFSLSTSGVGVGWLRQPPGKALEWLALIYWDDDKRYSPSLKSRLTISKDTSKNQVVLKMTNIDPVDTATYYCAHHSISTIFDHWGQGTLVTVSS
VL: QSALTQPASVSGSPGQSITISCTATSSDVGNYNYVSWYQQHPGKAPKLMIFEVSDRPSGISNRFSGSKSGNTASLTISGLQAEDEADYYCSSYTSSSVVFGGGTKLTVL
Take B5: the pKD in experiment [2] is 9.57 -log10(KD).

B6: Inverse folding design from the LY-CoV1404 starting point (Table 5, design row 2, the 5th table, row 13) (antibody, V domains shown)
VH: QITLKESGPTLVKPTQTLTLTCTFSGFSLSISGVGVGWLRQPPGKALEWLALIYWDDDKRYSPSLKSRLTISKDTSKNQVVLKMTNIDPVDTATYYCAHHSISTIFDHWGQGTLVTVSS
VL: QSALTQPASVSGSPGQSITISCTATSSDVGIYNYVSWYQQHPGKAPKLMIFEVSDRPSGISNRFSGSKSGNTASLTISGLQAEDEADYYCSSYTTSAAVFGGGTKLTVL
With B6, the pKD in experiment [2] is 9.48 -log10(KD).

B7: Inverse folding design from the DXP-604 starting point (Table 5, design row 1, the 5th table, row 4) (antibody, V domains shown)
VH: EVQLVESGGGLIQPGGSLRLSCAASGIIVSRNYMTWVRQAPGKGLEWVSVIYSGGSTFYADSVKGRFTISRDNSKNTLYLQMSSLRAEDTAVYYCARDLGPYGMDVWGQGTTVTVSS
VL: DIQLTQSPSFLSASVGDRVTITCRASQGISSDLAWYQQKPGKAPNLLIYAASTLQSGVPSRFSGSGSGTEFTLTISSLQPEDFATYYCQQLMDTLYTFGQGTKLEIK
As to B7, the pKD is 10 -log10(KD) in experiment [2] and 6.33 -log10(KD) in experiment [3].

B8: Inverse folding design from the DXP-604 starting point (Table 5, design row 4, the 5th table, row 7) (antibody, V domains shown)
VH: EVQLVESGGGLIQPGGSLRLSCAASGIIVSRNYMTWVRQAPGKGLEWVSVIYSGGTTFYADSVKGRFTISRDNSKNTLYLQMSSLRAEDTAVYYCARDLGPYGMDVWGQGTTVTVSS
VL: DIQLTQSPSFLSASVGDRVTITCRASQGIGSDLAWYQQKPGKAPNLLIYAASTLQSGVPSRFSGSGSGTEFTLTISSLQPEDFATYYCQQLNSDLYTFGQGTKLEIK
Regarding B8, the pKD was 9.53 -log10(KD) in experiment [2] and 6.35 -log10(KD) in experiment [3].

B9: Inverse folding design from the DXP-604 starting point (Table 5, design row 7, the 5th table, row 10) (antibody, V domains shown)
VH: EVQLVESGGGLIQPGGSLRLSCAASGIIVSRNYMTWVRQAPGKGLEWVSVIYSGGSTFYADSVKGRFTISRDNSKNTLYLQMSSLRAEDTAVYYCARDLGPYGMDVWGQGTTVTVSS
VL: DIQLTQSPSFLSASVGDRVTITCRASQGISSDLAWYQQKPGKAPNLLIYAASTLQSGVPSRFSGSGSGTEFTLTISSLQPEDFATYYCQQLNSDLYTFGQGTKLEIK
Turning to B9, the values for the pKD in experiment [2] and in experiment [3] were 10.6 -log10(KD) and 6.07 -log10(KD), respectively.

B10: Inverse folding design from the DXP-604 starting point (Table 5, design row 3, the 5th table, row 6) (antibody, V domains shown)
VH: EVQLVESGGGLIQPGGSLRLSCAASGIIVSRNYMTWVRQAPGKGLEWVSVIYSGGSTFYADSVKGRFTISRDNSKNTLYLQMSSLRAEDTAVYYCARDLGPYGMDVWGQGTTVTVSS
VL: DIQLTQSPSFLSASVGDRVTITCRASQGISSDLAWYQQKPGKAPNLLIYAASTLQSGVPSRFSGSGSGTEFTLTISSLQPEDFATYYCQQLNDLLYTFGQGTKLEIK
With B10, the pKD in experiment [2] is 9.38 -log10(KD); in experiment [3], 6.01 -log10(KD).

B11: Inverse folding design from the DXP-604 starting point (Table 5, design row 5, the 5th table, row 8) (antibody, V domains shown)
VH: EVQLVESGGGLIQPGGSLRLSCAASGIIVSRNYMTWVRQAPGKGLEWVSVIYPGGSTFYADSVKGRFTISRDNSKNTLYLQMSSLRAEDTAVYYCARDLGVYGMDVWGQGTTVTVSS
VL: DIQLTQSPSFLSASVGDRVTITCRASQGISSDLAWYQQKPGKAPNLLIYAASTLQSGVPSRFSGSGSGTEFTLTISSLQPEDFATYYCQQLNDYLYTFGQGTKLEIK
With B11, the values for the pKD in experiment [2] and in experiment [3] were 10.8 -log10(KD) and 6.33 -log10(KD), respectively.

B12: Inverse folding design from the DXP-604 starting point (Table 5, design row 2, the 5th table, row 5) (antibody, V domains shown)
VH: EVQLVESGGGLIQPGGSLRLSCAASGIIVSRNYMTWVRQAPGKGLEWVSVIYSGGTTFYADSVKGRFTISRDNSKNTLYLQMSSLRAEDTAVYYCARDLAVYGMDVWGQGTTVTVSS
VL: DIQLTQSPSFLSASVGDRVTITCRASQGIGSDLAWYQQKPGKAPNLLIYAASTLQSGVPSRFSGSGSGTEFTLTISSLQPEDFATYYCQQLNSDLYTFGQGTKLEIK
As for B12, the pKD was 10.2 -log10(KD) in experiment [2] and 6.15 -log10(KD) in experiment [3].

B13: Inverse folding design from the DXP-604 starting point (Table 5, design row 6, the 5th table, row 9) (antibody, V domains shown)
VH: EVQLVESGGGLIQPGGSLRLSCAASGIIVSRNYMTWVRQAPGKGLEWVSVIYSGGSTFYADSVKGRFTISRDNSKNTLYLQMSSLRAEDTAVYYCARDLGPYGMDVWGQGTTVTVSS
VL: DIQLTQSPSFLSASVGDRVTITCRASQGIGSDLAWYQQKPGKAPNLLIYAASTLQSGVPSRFSGSGSGTEFTLTISSLQPEDFATYYCQQLNSDLYTFGQGTKLEIK
As to B13, the pKD was 10 -log10(KD) in experiment [2] and 6.28 -log10(KD) in experiment [3].
